Results from patent US10562947B2, “Compositions and methods for preventing or treating diseases, conditions or processes characterized by aberrant fibroblast proliferation and extracellular matrix deposition” (MOERAE MATRIX, INC., priority 2011, dated 2020).
Where a SMILES comes first, the peptide text is derived from it.

How the values were obtained:
Test in all cases: Kinase Profiling Assay
Type in all cases: biochemical
FGFR2(h) = FGFR2(h) (Homo sapiens, UniProt P21802); conditions: 100 μM peptide
Method in brief: (§1)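 Peptides designed to inhibit MK2 were checked against a broad human kinase panel (266 enzymes), with duplicate measurement of every activity.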

Rsk2(h) = molecular target: T1, Rsk2(h) (Homo sapiens, UniProt P51812); conditions: 100 μM peptide
T1 construct: purchased Millipore (IC50 Profiler Express service)
Method in brief: as §1

TrkA(h) = TrkA(h) (Homo sapiens, UniProt P04629); conditions: 100 μM peptide
Method in brief: as §1

TSSK1(h) = molecular target: T2, TSSK1(h) (Homo sapiens, UniProt Q9BXA7); conditions: 100 μM peptide
T2 sequence (Q9BXA7 1-367): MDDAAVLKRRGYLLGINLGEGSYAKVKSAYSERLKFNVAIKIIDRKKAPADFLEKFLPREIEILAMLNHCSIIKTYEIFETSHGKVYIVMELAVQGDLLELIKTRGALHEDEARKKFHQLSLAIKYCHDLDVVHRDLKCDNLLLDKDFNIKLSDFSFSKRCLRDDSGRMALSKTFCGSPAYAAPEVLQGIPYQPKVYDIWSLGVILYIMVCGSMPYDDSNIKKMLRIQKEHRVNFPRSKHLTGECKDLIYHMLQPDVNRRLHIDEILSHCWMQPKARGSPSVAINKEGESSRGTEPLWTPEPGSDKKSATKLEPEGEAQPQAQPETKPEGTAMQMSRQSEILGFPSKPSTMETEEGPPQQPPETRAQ
Method in brief: as §1

GSK3α(h) = molecular target: T3, GSK3α(h) (Homo sapiens, UniProt P49840); conditions: 100 μM peptide
T3 construct: purchased Millipore
Method in brief: as §1

CDK1/cyclinB(h) = CDK1/cyclinB(h) (Homo sapiens, UniProt P06493); conditions: 100 μM peptide
Method in brief: as §1

EphB3(h) = molecular target: T4, EphB3(h) (Homo sapiens, UniProt P54753); conditions: 100 μM peptide
T4 sequence (P54753 34-998): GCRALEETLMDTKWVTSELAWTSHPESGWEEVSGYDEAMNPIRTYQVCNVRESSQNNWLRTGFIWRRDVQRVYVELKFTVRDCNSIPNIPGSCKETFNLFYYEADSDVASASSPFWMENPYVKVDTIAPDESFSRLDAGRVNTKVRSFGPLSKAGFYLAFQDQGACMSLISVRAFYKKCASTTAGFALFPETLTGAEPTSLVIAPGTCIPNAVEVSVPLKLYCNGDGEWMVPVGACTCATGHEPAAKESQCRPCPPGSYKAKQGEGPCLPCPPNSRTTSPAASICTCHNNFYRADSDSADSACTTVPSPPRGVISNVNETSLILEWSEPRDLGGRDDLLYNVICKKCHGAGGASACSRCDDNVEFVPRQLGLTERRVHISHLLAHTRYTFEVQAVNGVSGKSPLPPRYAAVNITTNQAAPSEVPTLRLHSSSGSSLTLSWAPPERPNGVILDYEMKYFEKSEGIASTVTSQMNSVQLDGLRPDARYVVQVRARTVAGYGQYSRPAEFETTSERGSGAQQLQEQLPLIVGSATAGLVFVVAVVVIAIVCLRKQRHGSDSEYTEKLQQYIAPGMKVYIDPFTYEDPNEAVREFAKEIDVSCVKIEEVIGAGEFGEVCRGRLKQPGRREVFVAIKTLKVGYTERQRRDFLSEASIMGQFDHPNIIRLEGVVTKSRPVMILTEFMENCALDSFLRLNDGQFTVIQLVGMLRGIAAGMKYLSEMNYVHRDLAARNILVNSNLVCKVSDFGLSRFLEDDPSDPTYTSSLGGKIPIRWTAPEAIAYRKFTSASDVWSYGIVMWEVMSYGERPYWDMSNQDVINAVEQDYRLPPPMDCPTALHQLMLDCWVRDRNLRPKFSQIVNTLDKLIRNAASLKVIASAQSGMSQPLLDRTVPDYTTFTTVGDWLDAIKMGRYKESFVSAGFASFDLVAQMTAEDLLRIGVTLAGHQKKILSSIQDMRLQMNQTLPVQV
Method in brief: as §1

MAPKAP-K2(h) = MAPKAP-K2(h) (Homo sapiens, UniProt P49137); conditions: for MAPKAP-K2(h) % activity: 100 μM peptide
Method in brief: as §1

SGK(h) = molecular target: T5, SGK(h) (Homo sapiens, UniProt O00141); conditions: 100 μM peptide
T5 sequence (O00141 1-431): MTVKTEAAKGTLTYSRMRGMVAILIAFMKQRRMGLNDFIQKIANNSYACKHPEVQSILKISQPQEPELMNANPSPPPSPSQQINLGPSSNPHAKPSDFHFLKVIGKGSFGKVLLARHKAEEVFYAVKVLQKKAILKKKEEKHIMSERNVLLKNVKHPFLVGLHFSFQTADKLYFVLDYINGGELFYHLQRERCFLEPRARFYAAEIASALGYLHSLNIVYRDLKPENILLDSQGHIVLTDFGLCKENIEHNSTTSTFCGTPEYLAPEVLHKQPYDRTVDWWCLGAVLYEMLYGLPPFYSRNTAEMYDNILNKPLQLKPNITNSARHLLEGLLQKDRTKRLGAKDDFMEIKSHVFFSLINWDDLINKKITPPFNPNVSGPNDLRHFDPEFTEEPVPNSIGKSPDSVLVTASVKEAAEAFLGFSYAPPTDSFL
Method in brief: as §1

Rsk4(h) = Rsk4(h) (Homo sapiens, UniProt Q9UK32); conditions: 100 μM peptide
Method in brief: as §1

CDK6/cyclinD3(h) = CDK6/cyclinD3(h) (Homo sapiens, UniProt Q00534); conditions: 100 μM peptide
Method in brief: as §1

WNK3(h) = WNK3(h) (Homo sapiens, UniProt Q9BYP7); conditions: 100 μM peptide
Method in brief: as §1

EGFR(h) = EGFR(h) (Homo sapiens, UniProt P00533); conditions: 100 μM peptide
Method in brief: as §1

Sequence of Rsk4(h) (Q9UK32 whole entry): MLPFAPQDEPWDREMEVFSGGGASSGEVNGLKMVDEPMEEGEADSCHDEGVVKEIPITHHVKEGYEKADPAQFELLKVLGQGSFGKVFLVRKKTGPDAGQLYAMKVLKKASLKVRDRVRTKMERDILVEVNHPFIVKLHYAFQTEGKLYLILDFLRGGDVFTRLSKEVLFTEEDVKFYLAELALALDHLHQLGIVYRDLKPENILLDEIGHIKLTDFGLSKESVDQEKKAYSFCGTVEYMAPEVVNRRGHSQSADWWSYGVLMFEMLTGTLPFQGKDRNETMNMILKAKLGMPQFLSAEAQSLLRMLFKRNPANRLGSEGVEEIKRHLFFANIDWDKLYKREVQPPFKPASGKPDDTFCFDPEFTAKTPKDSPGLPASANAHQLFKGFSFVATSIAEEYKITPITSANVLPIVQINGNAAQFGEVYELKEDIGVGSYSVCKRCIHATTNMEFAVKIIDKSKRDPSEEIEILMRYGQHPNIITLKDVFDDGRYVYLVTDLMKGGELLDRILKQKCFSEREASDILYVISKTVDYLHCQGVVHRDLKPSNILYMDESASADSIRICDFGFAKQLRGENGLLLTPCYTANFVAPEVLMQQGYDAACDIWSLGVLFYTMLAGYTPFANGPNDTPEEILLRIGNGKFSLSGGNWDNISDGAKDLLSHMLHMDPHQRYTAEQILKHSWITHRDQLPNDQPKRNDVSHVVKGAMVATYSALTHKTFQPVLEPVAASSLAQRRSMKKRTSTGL
Sequence of CDK6/cyclinD3(h) (Q00534 whole entry): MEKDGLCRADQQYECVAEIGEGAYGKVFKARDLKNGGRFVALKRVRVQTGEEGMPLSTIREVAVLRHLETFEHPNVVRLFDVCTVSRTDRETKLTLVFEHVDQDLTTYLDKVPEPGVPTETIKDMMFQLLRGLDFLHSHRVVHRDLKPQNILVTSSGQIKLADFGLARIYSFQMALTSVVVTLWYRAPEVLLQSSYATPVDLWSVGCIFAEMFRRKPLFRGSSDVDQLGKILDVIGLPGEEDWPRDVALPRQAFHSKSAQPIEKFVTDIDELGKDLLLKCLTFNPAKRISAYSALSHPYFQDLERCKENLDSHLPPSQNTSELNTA
Sequence of CDK6/cyclinD3(h) (P30281 whole entry partner): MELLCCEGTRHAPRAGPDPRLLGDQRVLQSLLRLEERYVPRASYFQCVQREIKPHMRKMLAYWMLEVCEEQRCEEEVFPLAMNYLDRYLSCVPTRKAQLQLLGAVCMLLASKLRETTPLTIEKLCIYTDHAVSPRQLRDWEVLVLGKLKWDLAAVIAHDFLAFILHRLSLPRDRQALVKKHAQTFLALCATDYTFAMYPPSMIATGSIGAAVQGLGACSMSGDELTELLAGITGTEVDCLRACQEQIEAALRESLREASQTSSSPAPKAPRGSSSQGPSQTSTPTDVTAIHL
Sequence of CDK1/cyclinB(h) (P06493 whole entry): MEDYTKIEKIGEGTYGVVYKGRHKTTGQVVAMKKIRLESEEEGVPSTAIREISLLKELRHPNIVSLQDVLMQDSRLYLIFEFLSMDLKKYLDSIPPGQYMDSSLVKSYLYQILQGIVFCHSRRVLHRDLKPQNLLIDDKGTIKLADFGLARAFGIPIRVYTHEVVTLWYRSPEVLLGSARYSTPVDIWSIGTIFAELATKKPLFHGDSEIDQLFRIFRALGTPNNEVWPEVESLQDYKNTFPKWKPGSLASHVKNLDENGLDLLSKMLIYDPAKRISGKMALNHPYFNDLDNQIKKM
Sequence of CDK1/cyclinB(h) (P14635 whole entry partner): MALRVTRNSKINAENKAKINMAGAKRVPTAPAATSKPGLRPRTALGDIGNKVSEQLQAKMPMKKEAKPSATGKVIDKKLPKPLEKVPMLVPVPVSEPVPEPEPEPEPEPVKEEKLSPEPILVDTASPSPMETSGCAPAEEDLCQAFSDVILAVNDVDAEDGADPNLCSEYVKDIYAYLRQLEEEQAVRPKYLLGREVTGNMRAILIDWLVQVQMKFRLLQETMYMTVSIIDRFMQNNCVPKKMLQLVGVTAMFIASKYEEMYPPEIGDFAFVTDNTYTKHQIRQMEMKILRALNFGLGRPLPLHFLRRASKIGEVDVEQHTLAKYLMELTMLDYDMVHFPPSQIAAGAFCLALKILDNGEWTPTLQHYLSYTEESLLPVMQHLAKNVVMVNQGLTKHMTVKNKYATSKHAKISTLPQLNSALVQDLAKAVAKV
Sequence of MAPKAP-K2(h) (P49137 whole entry): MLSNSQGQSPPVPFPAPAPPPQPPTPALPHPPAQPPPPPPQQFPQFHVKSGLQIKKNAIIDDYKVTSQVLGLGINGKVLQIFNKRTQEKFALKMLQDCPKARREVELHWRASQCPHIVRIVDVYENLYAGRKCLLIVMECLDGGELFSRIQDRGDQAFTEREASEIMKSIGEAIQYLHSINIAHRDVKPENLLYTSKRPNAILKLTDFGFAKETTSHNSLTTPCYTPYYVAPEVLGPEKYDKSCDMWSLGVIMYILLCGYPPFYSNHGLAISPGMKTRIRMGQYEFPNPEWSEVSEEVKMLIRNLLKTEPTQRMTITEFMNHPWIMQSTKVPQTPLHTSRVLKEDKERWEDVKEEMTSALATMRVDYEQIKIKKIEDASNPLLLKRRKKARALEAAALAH
Sequence of WNK3(h) (Q9BYP7 whole entry): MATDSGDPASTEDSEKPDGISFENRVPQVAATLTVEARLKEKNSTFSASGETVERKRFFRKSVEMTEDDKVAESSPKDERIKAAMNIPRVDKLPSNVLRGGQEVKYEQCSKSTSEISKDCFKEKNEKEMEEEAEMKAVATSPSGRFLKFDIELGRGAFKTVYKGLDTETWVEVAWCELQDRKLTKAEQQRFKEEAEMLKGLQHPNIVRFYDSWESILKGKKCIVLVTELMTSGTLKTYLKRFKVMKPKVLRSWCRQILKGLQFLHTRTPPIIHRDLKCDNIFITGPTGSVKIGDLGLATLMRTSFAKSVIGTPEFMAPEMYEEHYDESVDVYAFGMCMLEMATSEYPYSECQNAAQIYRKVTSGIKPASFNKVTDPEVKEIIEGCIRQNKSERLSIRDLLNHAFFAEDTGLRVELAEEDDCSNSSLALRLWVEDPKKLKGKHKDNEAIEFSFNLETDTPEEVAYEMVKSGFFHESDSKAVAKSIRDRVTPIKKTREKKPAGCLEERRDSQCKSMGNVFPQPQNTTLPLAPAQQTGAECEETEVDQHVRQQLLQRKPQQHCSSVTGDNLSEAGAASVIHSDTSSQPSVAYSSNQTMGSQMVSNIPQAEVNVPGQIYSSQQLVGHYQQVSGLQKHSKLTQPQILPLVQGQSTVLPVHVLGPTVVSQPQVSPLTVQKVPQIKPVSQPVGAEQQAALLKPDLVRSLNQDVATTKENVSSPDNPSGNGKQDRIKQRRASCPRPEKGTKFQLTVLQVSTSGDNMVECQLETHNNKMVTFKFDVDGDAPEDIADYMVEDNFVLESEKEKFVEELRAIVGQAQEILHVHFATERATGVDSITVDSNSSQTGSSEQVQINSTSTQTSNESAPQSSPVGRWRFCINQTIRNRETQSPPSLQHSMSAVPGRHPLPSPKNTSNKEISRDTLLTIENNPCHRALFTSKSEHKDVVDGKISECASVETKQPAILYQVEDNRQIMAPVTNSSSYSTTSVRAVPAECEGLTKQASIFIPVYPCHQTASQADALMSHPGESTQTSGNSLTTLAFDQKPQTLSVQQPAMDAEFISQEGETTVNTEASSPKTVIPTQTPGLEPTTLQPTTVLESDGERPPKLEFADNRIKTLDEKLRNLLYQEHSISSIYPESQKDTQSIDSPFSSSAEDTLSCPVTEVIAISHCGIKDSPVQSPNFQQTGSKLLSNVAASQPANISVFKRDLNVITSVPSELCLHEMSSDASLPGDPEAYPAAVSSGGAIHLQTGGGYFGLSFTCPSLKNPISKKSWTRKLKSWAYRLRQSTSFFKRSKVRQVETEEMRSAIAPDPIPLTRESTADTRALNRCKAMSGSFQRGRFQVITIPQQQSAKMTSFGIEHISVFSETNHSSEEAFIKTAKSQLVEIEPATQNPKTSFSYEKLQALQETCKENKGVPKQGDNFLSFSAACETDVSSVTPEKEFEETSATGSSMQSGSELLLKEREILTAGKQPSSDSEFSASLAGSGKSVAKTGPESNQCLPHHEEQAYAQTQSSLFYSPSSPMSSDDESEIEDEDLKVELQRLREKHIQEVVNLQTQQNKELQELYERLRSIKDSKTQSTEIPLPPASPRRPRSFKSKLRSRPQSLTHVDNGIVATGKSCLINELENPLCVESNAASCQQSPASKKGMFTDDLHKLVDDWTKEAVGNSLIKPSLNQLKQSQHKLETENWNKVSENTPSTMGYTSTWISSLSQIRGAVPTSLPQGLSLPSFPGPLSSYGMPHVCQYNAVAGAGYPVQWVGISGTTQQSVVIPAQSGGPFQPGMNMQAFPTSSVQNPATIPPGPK
T3 sequence (P49840 whole entry): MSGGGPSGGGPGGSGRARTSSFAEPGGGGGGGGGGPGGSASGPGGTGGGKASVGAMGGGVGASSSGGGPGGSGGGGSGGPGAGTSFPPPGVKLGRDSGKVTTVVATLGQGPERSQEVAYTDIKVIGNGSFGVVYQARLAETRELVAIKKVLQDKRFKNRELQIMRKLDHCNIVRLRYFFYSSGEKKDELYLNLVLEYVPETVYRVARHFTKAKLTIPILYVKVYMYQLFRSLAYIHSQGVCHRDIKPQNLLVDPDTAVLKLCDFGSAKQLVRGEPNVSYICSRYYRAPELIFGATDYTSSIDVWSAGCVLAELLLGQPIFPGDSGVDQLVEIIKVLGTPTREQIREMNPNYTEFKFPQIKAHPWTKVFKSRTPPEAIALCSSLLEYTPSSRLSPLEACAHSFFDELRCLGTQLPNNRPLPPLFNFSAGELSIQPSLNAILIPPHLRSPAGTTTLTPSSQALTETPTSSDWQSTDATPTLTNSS

| Molecule | FGFR2(h) % activity (FGFR2(h)) | Rsk2(h) % activity (Rsk2(h)) | TrkA(h) % activity (TrkA(h)) | TSSK1(h) % activity (TSSK1(h)) | GSK3α(h) % activity (GSK3α(h)) | CDK1/cyclinB(h) % activity (CDK1/cyclinB(h)) | EphB3(h) % activity (EphB3(h)) | MAPKAP-K2(h) % activity (MAPKAP-K2(h)) | SGK(h) % activity (SGK(h)) | Rsk4(h) % activity (Rsk4(h)) | CDK6/cyclinD3(h) % activity (CDK6/cyclinD3(h)) | WNK3(h) % activity (WNK3(h)) | EGFR(h) % activity (EGFR(h)) | inhibition at 100 µM (MAPKAP-K2(h); read-out: inhibition of kinase activity of MK2) |
| --- | --- | --- | --- | --- | --- | --- | --- | --- | --- | --- | --- | --- | --- | --- |
| FAKLAARLYRKALARQLGVAA [MMI-0300] | 14% | 51% | 25% | 79% | 157% | 73% | 62% | 5% | 48% | 90% | 86% | 77% | 21% |  |
| CC(C)C[C@H](NC(=O)[C@H](C)NC(=O)[C@H](CCCCN)NC(=O)[C@H](C)NC(=O)[C@H](CCCNC(=N)N)NC(=O)[C@H](C)NC(=O)[C@H](CCC(N)=O)NC(=O)[C@H](CCCNC(=N)N)NC(=O)[C@H](C)NC(=O)[C@H](C)NC(=O)[C@H](C)NC(=O)[C@H](CCCNC(=N)N)NC(=O)[C@H](C)NC(=O)[C@@H](N)Cc1ccc(O)cc1)C(=O)N[C@@H](C)C(=O)N[C@@H](CCCNC(=N)N)C(=O)N[C@@H](CCC(N)=O)C(=O)N[C@@H](CC(C)C)C(=O)NCC(=O)N[C@H](C(=O)N[C@@H](C)C(=O)N[C@@H](C)C(=O)O)C(C)C [MMI-0100] (H-YARAAARQARAKALARQLGVAA-OH; N-terminus and C-terminus assumed) |  |  |  |  |  |  |  |  |  |  |  |  |  | > 65% |
| KAFAKLAARLYRKALARQLGVAA [MMI-0400] | 18% | 38% | 17% | 79% | 164% | 74% | 47% | 5% | 54% | 91% | 85% | 74% | 16% |  |
| YARAAARQARAKALNRQLGVA (Mammalian) [MMI-0200] | 73% | 101% |  | 98% |  |  | 128% | 35% |  | 125% | 100% | 97% | 83% |  |
| HRRIKAWLKKIKALARQLGVAA (Mammalian) [MMI-0500] | 12% | 14% | 24% | 46% | 175% | 57% | 79% | 9% | 2% | 29% | 23% | 9% | −1% |  |
